A word on the EC50: it is the concentration that produces a half-maximal response. By EC50 (read off the curve) is commonly meant the midpoint of the concentration-response curve. Low readings indicate higher potency in that assay, high ones lower potency in that assay.

The record followed here is US20200369777A1 (Bristol-Myers Squibb, published 2020).

For assay [1], the target named is T1, human OX40 (human, UniProt P43489 29-277).
T1 sequence: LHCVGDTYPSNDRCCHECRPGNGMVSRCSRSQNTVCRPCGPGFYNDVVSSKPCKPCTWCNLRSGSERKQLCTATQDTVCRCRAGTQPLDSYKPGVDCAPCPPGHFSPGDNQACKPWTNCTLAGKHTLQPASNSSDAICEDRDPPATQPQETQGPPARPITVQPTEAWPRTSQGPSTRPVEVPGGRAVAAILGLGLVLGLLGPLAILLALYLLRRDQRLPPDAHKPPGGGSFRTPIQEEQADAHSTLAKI
Kind of assay: cell-based or functional assay.

Assay [2] concerns the target T1, human OX40. Put plainly: flow cytometry, binding to activated human T cells.
The next assay has as its target T2, mouse OX40 (mouse, UniProt P47741 20-272).
T2 construct: whole, on cells; also called murine OX40
T2 sequence (looked up): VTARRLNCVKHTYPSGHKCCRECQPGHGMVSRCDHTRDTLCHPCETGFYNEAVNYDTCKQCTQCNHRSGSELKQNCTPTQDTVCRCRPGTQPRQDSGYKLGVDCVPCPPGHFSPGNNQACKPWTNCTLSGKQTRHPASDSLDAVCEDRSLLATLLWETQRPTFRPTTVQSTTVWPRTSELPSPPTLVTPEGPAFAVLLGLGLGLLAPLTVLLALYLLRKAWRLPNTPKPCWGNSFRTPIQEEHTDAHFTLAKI
Put plainly: flow cytometry, binding to activated mouse T cells. In general terms: In flow cytometry, cells or beads pass a laser one at a time.

The next assay addresses T3, cynomolgus OX40 (cynomolgus, UniProt P43489 29-277 (human entry)).
T3 chain: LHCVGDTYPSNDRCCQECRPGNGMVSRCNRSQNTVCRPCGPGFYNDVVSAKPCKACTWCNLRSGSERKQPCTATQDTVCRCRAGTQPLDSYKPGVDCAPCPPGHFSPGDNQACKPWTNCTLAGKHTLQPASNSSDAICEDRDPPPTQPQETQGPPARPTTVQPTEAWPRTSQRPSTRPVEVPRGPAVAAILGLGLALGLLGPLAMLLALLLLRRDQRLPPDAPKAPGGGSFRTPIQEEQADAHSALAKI
Put plainly: flow cytometry, binding to activated cynomolgus T cells.

In assay [3] the target is T1, human OX40. Put plainly: Flow cytometry receptor occupancy on human CD4+ T cells cultured with CHO-OKT3-CD32A cells.
For assay [4], the target named is T1, human OX40. Described as above. This is another data set of the same source.
For assay [5], the target named is T1, human OX40. Kind of assay: Flow cytometry on human CD4+ T cells cultured with CHO-OKT3-CD32A cells; bound OX40.21 detected with APC anti-human Fc. Total surface OX40 changes along the same titration. As to the method:
Briefly, total T cells were purified from human whole blood using Ficoll gradient centrifugation. CD4+ T cells were isolated from PBMCs using the Miltenyi CD4+ isolation kit. Isolated T cells were cultured in the presence of irradiated CHO-OKT3-CD32A (artificial antigen presenting cells) and in the presence of serial dilutions of OX40.21 or isotype control. Receptor occupancy was determined as the ratio of bound OX40 antibody to total surface OX40 using flow cytometry. Bound antibody was assessed by adding fluorescent conjugated anti-human Fc after washing the T cells. Total OX40 was determined by adding a saturating amount of OX40 antibody to the T cells. Following incubation, cells were washed and stained by adding fluorescent conjugated anti-human FC.

For assay [6], the target named is T1, human OX40. Kind of assay: Emax PK-PD model: trough serum concentration (Cmin1) against blood receptor occupancy on CD4+ T cells at C2D1, 16 cancer patients, flow cytometry; in vivo blood receptor occupancy vs trough serum concentration (Cmin1), Emax PK-PD model; not an in vitro titration. The source says: (§1) This Example describes a PK-PD model for predicting receptor occupancy in human patients. The drug concentration-time profile was described by a linear two-compartment PK model using population PK analysis. […] The individual drug exposure (Cmin1: trough concentration after first dose) in the alternative dose schedule was predicted based on the PPK model, which was used in subsequent PK-PD model development.
(§2) wherein drug concentration is Cmin1, the trough concentration after first dose, ROₘₐₓ is the maximum percentage of blood RO and EC₅₀ is the drug concentration corresponding to 50% of ROₘₐₓ. From this analysis, the drug EC₅₀ was estimated to be 0.094 μg/mL (FIG. 8B). The trial […] was conducted to predict blood RO at alternative dosing schedules by using the established PK-PD relationship (Emax model), as well as taking into account inter-subject variability of PK and PD (FIG. 9).

In assay [7] the target is T1, human OX40. Put plainly: Emax model (RO = Emax x Cmin1 / (EC50 + Cmin1)) of the trough concentration after the first dose against peripheral blood RO on CD4+ T cells at C2D1 in patients. The text prints the value rounded, 0.094 ug/mL. No Emax value is printed; the median curve runs from about 92 % at 20 mg to about 99 % at 320 mg.
Text: as §1, §2

B1: OX40.21 (antibody, human IgG1, kappa, V domains shown)
VH: EVQLVQSGGGLVQPGGSLRLSCAGSGFTFSSYAMYWVRQAPGKGLEWVSAIDTDAGTFYADSVRGRFTISRDNAKNSLYLQMNSLRAEDTAVYFCARLGEGYFFDYWGQGTLVTVSS
VL: EIVLTQSPATLSLSPGERATLSCRASQSVSSYLAWYQQKPGQAPRLLIYDASNRATGIPARFSGSGSGTDFTLTISSLEPEDFAVYYCQQRSNWPPTFGGGTKVEIKR
notes: also called OX40.21 (human)
B1: in the assay with human OX40 [1], the “EC50 of internalization (mean circle spot total intensity) in CD3/CD28-activated Tregs. The table prints no unit; the axis is 'Log nM Ab'” value worked out at 0.0779 nM. Besides, the EC50 was determined as 72 pM with human OX40 [2], 68 pM with cynomolgus OX40, 0.094 µg/mL with human OX40 [6] and 0.0937 µg/mL in the assay with human OX40 [7]. In the assay with mouse OX40, the binding result is on record as “no binding”. Further, the “EC50 (read off the curve)” value in the assay with human OX40 [3] is ~300 pM; in the assay with human OX40 [4] it was ~300 pM; in the assay with human OX40 [5], ~100 pM.
